Test [1] addresses biotinylated Cg1735ΔCD (residues 20 to 386) (Corynebacterium glutamicum ATCC13032). Put plainly: BLI; biotinylated Cg1735ΔCD immobilised on streptavidin biosensors; Cg1735CD 20 to 0.3125 μM or Cg1604 200 to 3.125 μM; 25 °C; HEPES 25 mM pH 7.5, NaCl 150 mM, glycerol 5%, BSA 1 mg/mL; steady-state, one-site model; apparent Kd.
Test [2] concerns the target T1, biotinylated Cg1735ΔCD (residues 20 to 386) (Corynebacterium glutamicum ATCC13032, biotin (EZ-Link NHS-PEG4-Biotin, 20 molar excess; sites not stated)).
T1 chain: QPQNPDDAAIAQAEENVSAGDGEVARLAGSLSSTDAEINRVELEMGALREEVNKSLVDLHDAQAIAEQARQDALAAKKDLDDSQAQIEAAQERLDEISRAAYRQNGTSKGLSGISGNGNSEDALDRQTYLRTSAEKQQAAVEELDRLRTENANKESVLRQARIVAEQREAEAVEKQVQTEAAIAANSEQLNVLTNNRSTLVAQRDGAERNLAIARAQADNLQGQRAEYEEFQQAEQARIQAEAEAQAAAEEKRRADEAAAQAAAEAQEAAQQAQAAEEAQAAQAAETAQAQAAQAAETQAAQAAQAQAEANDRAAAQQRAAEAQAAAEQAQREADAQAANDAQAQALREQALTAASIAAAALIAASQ
Put plainly: BLI.

Test [3] concerns the target His_SUMO_Cg1735CC1 (CC1 domain, residues 20 to 238) (Corynebacterium glutamicum ATCC13032). Put plainly: BLI; His_SUMO_Cg1735CC1 immobilised on Ni-NTA biosensors; Cg1735CD 20 to 0.3125 μM; 25 °C; HEPES 25 mM pH 7.5, NaCl 150 mM, glycerol 5%, BSA 1 mg/mL; steady-state, one-site model; apparent Kd. A general note: In BLI a coated tip is dipped into the sample, and binding shifts an interference pattern.

Turning to “Cg1604 (globular periplasmic domain, residues 36 to 295) (domain or fragment)”, the Kd in test [1] worked out at 56000 nM.

B1: Cg1735CD (catalytic domain, residues 460 to 600) (domain or fragment)
chain: DRSAQIETVIARAMSQLGVQYAWGGGNANGPTLGIRDGGVADSYGDYNKVGFDCSGLTLYAFAGVGISLPHYTGYQYQHGTKVSPSEMQRGDLIFYGPGASQHVAIYLGDGQMIEAPNSGSVVKISPVRWSGMTESVVRLI
For B1, the Kd in test [2] amounted to 1900 nM; in test [3] it was 1200 nM.

The values are drawn from publication PMC9897464 (2022).
